Source: patent publication EP4785962A1, “ANTIBODY-DRUG CONJUGATE TARGETING TROP2, AND PREPARATION METHOD AND USE THEREFOR” (priority 2023, dated 2025)

Tests used:
[1] = test system: Human gastric cancer cell line NCI-N87; experiment: Mouse xenograft tumor model NCI-N87; type: in vivo, immunodeficient mice CB17-SCID; details: intraperitoneal injection
Method: • 1. Mice: immunodeficient mice CB17-SCID (Vital River) aged 6-8 weeks were placed in an SPF experimental environment for 3-5 days before the experiment to better adapt to the current living environment. In all experiments, the long and short diameters of the tumor were measured twice a week using a vernier caliper, and the tumor volume (mm^3) was calculated from the measured data. The calculation formula is as follows: Tumor volume(mm^3) = 0.5 × long diameter(mm) × short diameter(mm) × short diameter(mm) [formula] • 2. Human gastric cancer cell line NCI-N87 (ATCC) cells were resuspended in 1× PBS (Gibco, 10010049) at an appropriate concentration, and the tumor cells were implanted subcutaneously in the right abdomen of the mice at an inoculation amount of 2×10^6 /mouse. When the tumor volume reached 150-200 mm^3, the mice were divided into groups such that the average initial administration volume of each group was substantially the same. After grouping, different doses of antibody-drug conjugates hRs7-DXd, hRS7-MB3 and hTINA1-DXd, or control-drug conjugates IgG-MB3, IgG-DXd and IgG control were administered by intraperitoneal injection. […] Compared with hRS7-DXd, hRS7-MB3 has a stronger tumor inhibitory effect. […] Non-small cell lung cancer cell line HCC827 cells purchased from ATCC were inoculated subcutaneously into mice (2×10^6 /mouse), and when the tumor volume reached 120-150 mm^3, the mice were grouped and administered. Different doses of the antibody-drug conjugate and the control drug were intraperitoneally injected into the mice, and the administration was performed only once throughout the experiment. The growth status of the mice was observed, and the changes in tumor volume of the mice were measured. […] The lung squamous cell carcinoma cell line LK-2 (CBP60105) purchased from Nanjing Cobioer Biosciences was implanted subcutaneously in the right abdomen of the mice at an inoculation amount of 3 × 10 ^6 cells/mouse. When the tumor volume reached 150-200 mm^3, the mice were divided into groups such that the average initial administration volume of each group was substantially the same. The mice were administered only once throughout the experiment and injected intraperitoneally at a dose of 10 mg/kg. IgG-MB3 or IgG-DXd was used as a negative control. It was observed that two TROP2-targeted ADCs were also able to delay tumor growth in a tumor model with relatively low TROP2 expression (FIG. 7). […] The pancreatic cancer cell line BxPC3 cells purchased from ATCC were implanted subcutaneously in the right abdomen of the mice at an inoculation amount of 3 × 10 ^6 cells/mouse. […]

[2] = test system: human hypopharyngeal carcinoma squamous cell line FaDu; experiment: In vitro cytotoxicity test, FaDu cells, 6 days; type: cell-based; details: 6 days of culture
Method: 10% FBS (SH30406.05, HYCLONE) was added to RPMI 1640 (22400-071, Gibco), and the mixture was mixed well to prepare a BxPC3 cell (ATCC) growth medium. BxPC3 or FaDu cells were adjusted to a concentration of 50000 cells/mL with a growth medium, seeded into a 96-well white-bottom plate (167008, NUNC) at 50 µL per well (2500 cells/well), and incubated overnight in an incubator at 37 °C. The antibody was diluted with growth medium and serially diluted 5-fold from 200 nM (2×) to obtain 9 gradients, with the final concentration being […]. The diluted antibody-drug conjugate or control was added at 50 µL/well, and the total volume was 100 µL. […] The cell pellet was fully lysed by shaking on a plate shaker for 5 min, and the luminescence signal was stabilized by standing at room temperature for 10 min. The culture plate was tested on a microplate reader (spectra MAX i3x, Molecular Divices), the […] were taken, and the cell viability was calculated. […]
The cell proliferation inhibition rate after 6 days of culture was calculated using the following formula.
Cell proliferation inhibition rate (%) = […], where a: the average value of experimental sample-added wells after 6 days of culture; b: the average value of control medium-added wells after 6 days of culture. The data were fitted by GraphPad Prism and the IC50 of the drug was calculated (Table 4).

B1: hTINA1-DXd: control ADC: antibody hTINA1 conjugated with Linker-DXd, average DAR 4.3; TROP2-ADC from Daiichi Sankyo (conjugate, chains of the INN, looked up)
VH: QVQLVQSGAEVKKPGASVKVSCKASGYTFTTAGMQWVRQAPGQGLEWMGWINTHSGVPKYAEDFKGRVTISADTSTSTAYLQLSSLKSEDTAVYYCARSGFGSSYWYFDVWGQGTLVTVSS
VL: DIQMTQSPSSLSASVGDRVTITCKASQDVSTAVAWYQQKPGKAPKLLIYSASYRYTGVPSRFSGSGSGTDFTLTISSLQPEDFAVYYCQQHYITPLTFGQGTKLEIK
modifications: deruxtecan (Linker-DXd), DAR 4.3
notes: control ADC: antibody hTINA1 conjugated with Linker-DXd, average DAR 4.3; TROP2-ADC from Daiichi Sankyo
With B1 the tumor inhibitory effect ([1]; high-dose group (3 mg/kg)) was “comparable tumor inhibitory effects”, the tumor inhibitory effect ([1]; low dose (1 mg/kg), compared with IgG-MB3 and IgG-DXd) was “a certain degree of tumor inhibitory effect” and the IC50 [2] was 1.5 nM.
